In patent US20180155451A1 (published 2018):
Positions count from the first letter of the chain named.

B1: GpH7-B3 variant S337_02A/GpL16-k0 (antibody, human IgG1, kappa)
heavy: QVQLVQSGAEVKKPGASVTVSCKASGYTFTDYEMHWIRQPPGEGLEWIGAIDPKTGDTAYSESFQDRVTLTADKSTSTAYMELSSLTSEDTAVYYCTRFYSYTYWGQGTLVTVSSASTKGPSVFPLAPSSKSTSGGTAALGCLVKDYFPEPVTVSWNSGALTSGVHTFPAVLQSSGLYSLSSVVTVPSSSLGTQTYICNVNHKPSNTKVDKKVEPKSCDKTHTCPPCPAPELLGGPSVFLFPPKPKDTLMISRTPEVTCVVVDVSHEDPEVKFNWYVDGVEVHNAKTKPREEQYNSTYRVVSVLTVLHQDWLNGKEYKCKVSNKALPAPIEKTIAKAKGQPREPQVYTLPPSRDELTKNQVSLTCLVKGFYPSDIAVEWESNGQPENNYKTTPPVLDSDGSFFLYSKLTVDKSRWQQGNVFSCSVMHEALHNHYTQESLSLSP
light: DIVMTQSPLSLPVTPGEPASISCQASESLVHSNRNTYLHWYLQKPGQSPQLLIYKVSNRFSGVPDRFSGSGSGTDFTLKISRVEAEDVGVYYCSQNTHVPPTFGQGTKVEIERTVAAPSVFIFPPSDEQLKSGTASVVCLLNNFYPREAKVQWKVDNALQSGNSQESVTEQDSKDSTYSLSSTLTLSKADYEKHKVYACEVTHQGLSSPVTKSFNRGEC
notes: homodimerized; mutation in both H chains; also called Ho Ab
B2: GpH7-A5/GpH7-B3 variant P271_01G/GpL16-k0 (antibody, human IgG1, kappa)
heavy 1: not shown
heavy 2: not shown
light: B1 light
notes: also called He Ab P271_01G
B3: GpH7-A5/GpH7-B3 variant K334_14T/GpL16-k0 (antibody, human IgG1, kappa)
heavy 1: not shown
heavy 2: not shown
light: B1 light
notes: also called He Ab K334_14T
B4: GpH7-B3 variant A327_09D/GpL16-k0 (antibody, human IgG1, kappa)
heavy: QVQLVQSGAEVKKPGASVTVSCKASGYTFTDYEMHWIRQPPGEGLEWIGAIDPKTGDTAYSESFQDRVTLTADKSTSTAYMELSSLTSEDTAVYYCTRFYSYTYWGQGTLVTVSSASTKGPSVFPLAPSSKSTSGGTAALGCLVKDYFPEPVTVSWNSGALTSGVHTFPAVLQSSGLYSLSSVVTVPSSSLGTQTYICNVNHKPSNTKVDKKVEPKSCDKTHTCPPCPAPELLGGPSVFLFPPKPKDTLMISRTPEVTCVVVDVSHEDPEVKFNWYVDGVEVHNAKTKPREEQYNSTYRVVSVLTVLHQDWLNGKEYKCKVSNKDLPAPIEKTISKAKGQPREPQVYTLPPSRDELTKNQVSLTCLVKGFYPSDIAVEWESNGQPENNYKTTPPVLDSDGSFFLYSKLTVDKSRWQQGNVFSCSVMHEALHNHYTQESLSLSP
light: B1 light
notes: as for B1
B5: GpH7-A5/GpH7-B3 variant T335_01G/GpL16-k0 (antibody, human IgG1, kappa)
heavy 1: not shown
heavy 2: not shown
light: B1 light
notes: also called He Ab T335_01G
B6: GpH7-B3 variant G237_20W/GpL16-k0 (antibody, human IgG1, kappa)
heavy: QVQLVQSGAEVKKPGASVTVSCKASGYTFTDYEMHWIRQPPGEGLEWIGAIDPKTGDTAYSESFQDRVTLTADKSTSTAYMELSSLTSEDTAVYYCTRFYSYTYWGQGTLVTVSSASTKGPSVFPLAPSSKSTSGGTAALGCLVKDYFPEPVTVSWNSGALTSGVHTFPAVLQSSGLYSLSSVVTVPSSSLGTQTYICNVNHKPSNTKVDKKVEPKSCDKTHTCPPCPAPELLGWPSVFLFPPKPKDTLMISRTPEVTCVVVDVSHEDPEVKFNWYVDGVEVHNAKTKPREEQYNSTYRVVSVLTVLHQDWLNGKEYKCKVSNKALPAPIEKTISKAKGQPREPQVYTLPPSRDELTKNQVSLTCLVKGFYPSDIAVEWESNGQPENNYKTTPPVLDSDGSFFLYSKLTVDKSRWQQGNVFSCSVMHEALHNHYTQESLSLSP
light: B1 light
notes: as for B1
B7: GpH7-A5/GpH7-B3 variant K334_08L/GpL16-k0 (antibody, human IgG1, kappa)
heavy 1: not shown
heavy 2: not shown
light: B1 light
notes: also called He Ab K334_08L
B8: GpH7-A5/GpH7-B3 variant S324_20W/GpL16-k0 (antibody, human IgG1, kappa)
heavy 1: not shown
heavy 2: not shown
light: B1 light
notes: also called He Ab S324_20W
B9: GpH7-B3 variant A330_01G/GpL16-k0 (antibody, human IgG1, kappa)
heavy: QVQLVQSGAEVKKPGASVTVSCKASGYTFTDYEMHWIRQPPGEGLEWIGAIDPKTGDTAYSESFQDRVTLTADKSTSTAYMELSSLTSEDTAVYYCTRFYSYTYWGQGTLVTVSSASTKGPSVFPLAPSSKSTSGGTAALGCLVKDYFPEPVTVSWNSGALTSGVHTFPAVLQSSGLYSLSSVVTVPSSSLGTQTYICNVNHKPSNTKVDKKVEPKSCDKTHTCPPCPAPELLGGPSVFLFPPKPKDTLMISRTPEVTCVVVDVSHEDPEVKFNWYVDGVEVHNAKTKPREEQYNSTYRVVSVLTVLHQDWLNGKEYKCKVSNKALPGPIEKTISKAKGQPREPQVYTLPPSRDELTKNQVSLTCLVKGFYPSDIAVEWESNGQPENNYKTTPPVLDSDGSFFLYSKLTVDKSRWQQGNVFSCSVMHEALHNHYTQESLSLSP
light: B1 light
notes: as for B1
B10: GpH7-A5/GpH7-B3 variant S324_10E/GpL16-k0 (antibody, human IgG1, kappa)
heavy 1: not shown
heavy 2: not shown
light: B1 light
notes: also called He Ab S324_10E
B11: GpH7-A5/GpH7-B3 variant S324_06M/GpL16-k0 (antibody, human IgG1, kappa)
heavy 1: not shown
heavy 2: not shown
light: B1 light
notes: also called He Ab S324_06M
B12: GpH7-A5/GpH7-B3 variant K334_04F/GpL16-k0 (antibody, human IgG1, kappa)
heavy 1: not shown
heavy 2: not shown
light: B1 light
notes: also called He Ab K334_04F
B13: GpH7-A5/GpH7-B3 variant L235_20W/GpL16-k0 (antibody, human IgG1, kappa)
heavy 1: not shown
heavy 2: not shown
light: B1 light
notes: also called He Ab L235_20W
B14: GpH7-A5/GpH7-B3 variant S337_09D/GpL16-k0 (antibody, human IgG1, kappa)
heavy 1: not shown
heavy 2: not shown
light: B1 light
notes: also called He Ab S337_09D
B15: GpH7-B3 variant A330_12R/GpL16-k0 (antibody, human IgG1, kappa)
heavy: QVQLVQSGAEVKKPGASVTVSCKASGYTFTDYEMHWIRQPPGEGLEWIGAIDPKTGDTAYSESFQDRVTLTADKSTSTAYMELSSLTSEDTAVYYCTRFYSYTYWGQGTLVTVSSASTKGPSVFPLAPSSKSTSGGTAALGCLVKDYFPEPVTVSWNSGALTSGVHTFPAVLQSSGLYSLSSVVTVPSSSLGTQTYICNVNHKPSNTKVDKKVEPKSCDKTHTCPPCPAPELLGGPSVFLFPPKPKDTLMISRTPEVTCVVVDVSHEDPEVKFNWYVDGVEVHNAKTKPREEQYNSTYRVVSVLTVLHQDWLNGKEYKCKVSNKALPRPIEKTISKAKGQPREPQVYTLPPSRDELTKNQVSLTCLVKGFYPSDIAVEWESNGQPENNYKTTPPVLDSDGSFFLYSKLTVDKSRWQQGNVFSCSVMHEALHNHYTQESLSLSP
light: B1 light
notes: as for B1
B16: GpH7-A5/GpH7-B3 variant S267_02A/GpL16-k0 (antibody, human IgG1, kappa)
heavy 1: not shown
heavy 2: not shown
light: B1 light
notes: also called He Ab S267_02A
B17: GpH7-B3 variant I336_08L/GpL16-k0 (antibody, human IgG1, kappa)
heavy: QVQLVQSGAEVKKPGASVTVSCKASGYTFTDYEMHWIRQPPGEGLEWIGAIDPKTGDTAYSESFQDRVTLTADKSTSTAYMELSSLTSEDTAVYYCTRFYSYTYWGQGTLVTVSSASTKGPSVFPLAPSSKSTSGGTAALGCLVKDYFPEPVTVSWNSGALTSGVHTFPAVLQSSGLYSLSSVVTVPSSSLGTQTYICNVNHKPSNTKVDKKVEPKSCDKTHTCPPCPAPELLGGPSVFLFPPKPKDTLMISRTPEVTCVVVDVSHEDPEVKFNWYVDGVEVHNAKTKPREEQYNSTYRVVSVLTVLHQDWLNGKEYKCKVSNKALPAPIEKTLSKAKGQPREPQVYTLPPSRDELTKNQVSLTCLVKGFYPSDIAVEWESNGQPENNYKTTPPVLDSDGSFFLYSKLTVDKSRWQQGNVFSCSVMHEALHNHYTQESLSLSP
light: B1 light
notes: as for B1
B18: GpH7-A5/GpH7-B3 variant T335_13S/GpL16-k0 (antibody, human IgG1, kappa)
heavy 1: not shown
heavy 2: not shown
light: B1 light
notes: also called He Ab T335_13S
B19: GpH7-A5/GpH7-B3 variant K334_07I/GpL16-k0 (antibody, human IgG1, kappa)
heavy 1: not shown
heavy 2: not shown
light: B1 light
notes: also called He Ab K334_07I
B20: GpH7-B3 variant K326_03V/GpL16-k0 (antibody, human IgG1, kappa)
heavy: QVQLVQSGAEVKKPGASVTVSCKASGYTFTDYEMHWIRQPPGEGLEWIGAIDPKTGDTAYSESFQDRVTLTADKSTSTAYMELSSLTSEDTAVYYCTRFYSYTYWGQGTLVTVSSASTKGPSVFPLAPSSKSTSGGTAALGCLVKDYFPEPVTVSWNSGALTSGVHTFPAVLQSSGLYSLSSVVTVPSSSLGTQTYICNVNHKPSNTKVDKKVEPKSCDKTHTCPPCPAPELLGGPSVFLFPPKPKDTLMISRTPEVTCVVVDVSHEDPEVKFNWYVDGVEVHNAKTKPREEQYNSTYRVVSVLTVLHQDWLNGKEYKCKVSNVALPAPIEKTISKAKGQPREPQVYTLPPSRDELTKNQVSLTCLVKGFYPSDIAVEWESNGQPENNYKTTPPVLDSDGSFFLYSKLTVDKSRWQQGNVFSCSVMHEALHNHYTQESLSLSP
light: B1 light
notes: as for B1
B21: GpH7-A5/GpH7-B3 variant T335_16H/GpL16-k0 (antibody, human IgG1, kappa)
heavy 1: not shown
heavy 2: not shown
light: B1 light
notes: also called He Ab T335_16H
B22: GpH7-A5/GpH7-B3 variant L328_02A/GpL16-k0 (antibody, human IgG1, kappa)
heavy 1: not shown
heavy 2: not shown
light: B1 light
notes: also called He Ab L328_02A
B23: GpH7-A5/GpH7-B3 variant K334_15Y/GpL16-k0 (antibody, human IgG1, kappa)
heavy 1: not shown
heavy 2: not shown
light: B1 light
notes: also called He Ab K334_15Y
B24: GpH7-B3 variant H268_01G/GpL16-k0 (antibody, human IgG1, kappa)
heavy: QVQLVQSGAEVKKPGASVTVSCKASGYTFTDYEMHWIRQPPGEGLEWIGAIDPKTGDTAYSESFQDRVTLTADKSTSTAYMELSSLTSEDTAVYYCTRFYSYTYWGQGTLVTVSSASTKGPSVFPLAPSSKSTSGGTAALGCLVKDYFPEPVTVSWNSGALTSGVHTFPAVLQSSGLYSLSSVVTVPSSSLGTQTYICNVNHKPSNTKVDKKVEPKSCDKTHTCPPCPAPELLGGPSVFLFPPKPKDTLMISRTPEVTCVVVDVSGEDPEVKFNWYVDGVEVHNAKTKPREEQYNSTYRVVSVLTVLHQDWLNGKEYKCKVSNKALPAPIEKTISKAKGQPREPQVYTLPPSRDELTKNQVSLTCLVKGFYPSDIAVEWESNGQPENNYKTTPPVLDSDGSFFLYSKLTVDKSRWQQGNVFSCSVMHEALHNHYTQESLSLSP
light: B1 light
notes: as for B1
B25: GpH7-A5/GpH7-B3 variant T335_10E/GpL16-k0 (antibody, human IgG1, kappa)
heavy 1: not shown
heavy 2: not shown
light: B1 light
notes: also called He Ab T335_10E
B26: GpH7-B3 variant K326_04F/GpL16-k0 (antibody, human IgG1, kappa)
heavy: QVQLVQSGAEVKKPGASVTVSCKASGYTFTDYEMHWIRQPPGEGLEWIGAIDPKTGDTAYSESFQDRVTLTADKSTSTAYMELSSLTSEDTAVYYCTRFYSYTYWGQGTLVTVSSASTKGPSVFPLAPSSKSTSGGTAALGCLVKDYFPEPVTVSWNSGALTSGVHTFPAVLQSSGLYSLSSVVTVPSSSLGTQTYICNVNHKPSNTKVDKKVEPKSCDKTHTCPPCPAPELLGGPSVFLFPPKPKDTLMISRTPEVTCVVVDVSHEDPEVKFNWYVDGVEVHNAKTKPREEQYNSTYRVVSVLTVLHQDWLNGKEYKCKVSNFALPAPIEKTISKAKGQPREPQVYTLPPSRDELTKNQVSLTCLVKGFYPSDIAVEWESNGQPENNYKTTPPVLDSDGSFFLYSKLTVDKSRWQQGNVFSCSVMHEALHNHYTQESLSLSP
light: B1 light
notes: as for B1
B27: GpH7-A5/GpH7-B3 variant Q295_05P/GpL16-k0 (antibody, human IgG1, kappa)
heavy 1: not shown
heavy 2: not shown
light: B1 light
notes: also called He Ab Q295_05P
B28: GpH7-A5/GpH7-B3 variant K334_16H/GpL16-k0 (antibody, human IgG1, kappa)
heavy 1: not shown
heavy 2: not shown
light: B1 light
notes: also called He Ab K334_16H
B29: GpH7-A5/GpH7-B3 variant L328_13S/GpL16-k0 (antibody, human IgG1, kappa)
heavy 1: not shown
heavy 2: not shown
light: B1 light
notes: also called He Ab L328_13S
B30: GpH7-A5/GpH7-B3 variant L328_14T/GpL16-k0 (antibody, human IgG1, kappa)
heavy 1: not shown
heavy 2: not shown
light: B1 light
notes: also called He Ab L328_14T
B31: GpH7-A5/GpH7-B3 variant S239_09D/GpL16-k0 (antibody, human IgG1, kappa)
heavy 1: not shown
heavy 2: not shown
light: B1 light
notes: also called He Ab S239_09D
B32: GpH7-A5/GpH7-B3 variant T335_07I/GpL16-k0 (antibody, human IgG1, kappa)
heavy 1: not shown
heavy 2: not shown
light: B1 light
notes: also called He Ab T335_07I
B33: GpH7-A5/GpH7-B3 variant S324_09D/GpL16-k0 (antibody, human IgG1, kappa)
heavy 1: not shown
heavy 2: not shown
light: B1 light
notes: also called He Ab S324_09D
B34: GpH7-A5/GpH7-B3 variant S324_02A/GpL16-k0 (antibody, human IgG1, kappa)
heavy 1: not shown
heavy 2: not shown
light: B1 light
notes: also called He Ab S324_02A
B35: GpH7-A5/GpH7-B3 variant S337_14T/GpL16-k0 (antibody, human IgG1, kappa)
heavy 1: not shown
heavy 2: not shown
light: B1 light
notes: also called He Ab S337_14T
B36: GpH7-B3 variant A327_10E/GpL16-k0 (antibody, human IgG1, kappa)
heavy: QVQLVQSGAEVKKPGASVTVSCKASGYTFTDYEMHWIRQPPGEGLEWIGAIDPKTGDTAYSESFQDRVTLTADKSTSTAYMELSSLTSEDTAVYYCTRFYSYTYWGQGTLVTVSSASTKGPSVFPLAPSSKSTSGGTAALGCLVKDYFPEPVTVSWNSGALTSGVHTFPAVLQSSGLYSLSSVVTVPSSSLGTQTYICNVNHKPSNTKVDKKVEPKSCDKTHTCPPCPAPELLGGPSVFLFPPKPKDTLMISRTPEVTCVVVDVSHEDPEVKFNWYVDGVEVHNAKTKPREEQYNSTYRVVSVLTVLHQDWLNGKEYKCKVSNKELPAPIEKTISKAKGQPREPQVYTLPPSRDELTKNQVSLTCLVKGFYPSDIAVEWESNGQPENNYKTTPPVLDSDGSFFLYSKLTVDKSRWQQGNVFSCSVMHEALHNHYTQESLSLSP
light: B1 light
notes: as for B1
B37: GpH7-A5/GpH7-B3 variant S337_10E/GpL16-k0 (antibody, human IgG1, kappa)
heavy 1: not shown
heavy 2: not shown
light: B1 light
notes: also called He Ab S337_10E
B38: GpH7-A5/GpH7-B3 variant Q295_07I/GpL16-k0 (antibody, human IgG1, kappa)
heavy 1: not shown
heavy 2: not shown
light: B1 light
notes: also called He Ab Q295_07I
B39: GpH7-A5/GpH7-B3 variant T335_19Q/GpL16-k0 (antibody, human IgG1, kappa)
heavy 1: not shown
heavy 2: not shown
light: B1 light
notes: also called He Ab T335_19Q
B40: GpH7-A5/GpH7-B3 variant L328_06M/GpL16-k0 (antibody, human IgG1, kappa)
heavy 1: not shown
heavy 2: not shown
light: B1 light
notes: also called He Ab L328_06M
B41: GpH7-A5/GpH7-B3 variant S337_16H/GpL16-k0 (antibody, human IgG1, kappa)
heavy 1: not shown
heavy 2: not shown
light: B1 light
notes: also called He Ab S337_16H
B42: GpH7-A5/GpH7-B3 variant T335_15Y/GpL16-k0 (antibody, human IgG1, kappa)
heavy 1: not shown
heavy 2: not shown
light: B1 light
notes: also called He Ab T335_15Y
B43: GpH7-B3 variant I332_06M/GpL16-k0 (antibody, human IgG1, kappa)
heavy: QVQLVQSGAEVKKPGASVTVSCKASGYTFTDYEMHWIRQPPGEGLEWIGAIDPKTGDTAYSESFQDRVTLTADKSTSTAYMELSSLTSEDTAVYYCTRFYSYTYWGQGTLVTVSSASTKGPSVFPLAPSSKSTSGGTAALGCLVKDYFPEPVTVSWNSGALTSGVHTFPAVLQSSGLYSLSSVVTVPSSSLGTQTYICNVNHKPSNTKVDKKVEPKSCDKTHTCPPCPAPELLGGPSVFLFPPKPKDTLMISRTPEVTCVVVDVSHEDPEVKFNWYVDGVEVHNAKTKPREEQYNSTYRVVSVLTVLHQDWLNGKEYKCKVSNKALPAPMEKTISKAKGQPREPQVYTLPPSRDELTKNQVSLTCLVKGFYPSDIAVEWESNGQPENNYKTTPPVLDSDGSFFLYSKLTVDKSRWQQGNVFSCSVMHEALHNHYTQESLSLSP
light: B1 light
notes: as for B1
B44: GpH7-B3 variant G237_04F/GpL16-k0 (antibody, human IgG1, kappa)
heavy: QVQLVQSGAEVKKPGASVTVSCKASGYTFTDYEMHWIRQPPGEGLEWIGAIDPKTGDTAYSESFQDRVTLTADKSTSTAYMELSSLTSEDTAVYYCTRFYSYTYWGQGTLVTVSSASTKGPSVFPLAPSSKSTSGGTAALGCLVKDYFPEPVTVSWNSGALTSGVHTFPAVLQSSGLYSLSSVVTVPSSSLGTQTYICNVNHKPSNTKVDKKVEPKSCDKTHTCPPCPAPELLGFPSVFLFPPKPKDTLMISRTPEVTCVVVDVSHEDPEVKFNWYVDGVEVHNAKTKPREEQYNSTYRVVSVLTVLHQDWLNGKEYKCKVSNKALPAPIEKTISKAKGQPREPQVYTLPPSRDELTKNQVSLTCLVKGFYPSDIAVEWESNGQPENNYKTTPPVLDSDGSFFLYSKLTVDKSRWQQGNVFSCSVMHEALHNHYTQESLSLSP
light: B1 light
notes: as for B1

Key:
[1] = biological target: T1, FcγRIIa R (extracellular domain with a His tag at the C terminus) (human, UniProt P12318 34-217); test: SPR Biacore, relative binding
T1 construct: extracellular domain; expressed in FreeStyle293 cells; also called FcgRIIa R; FcγRIIa type R; not shown: His tag at the C terminus
T1 sequence (looked up): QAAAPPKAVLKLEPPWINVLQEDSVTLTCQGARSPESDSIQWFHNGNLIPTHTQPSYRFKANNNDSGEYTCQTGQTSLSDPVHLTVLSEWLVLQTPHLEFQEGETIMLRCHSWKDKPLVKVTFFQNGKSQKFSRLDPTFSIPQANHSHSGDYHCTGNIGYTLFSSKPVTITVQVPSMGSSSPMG

[2] = biological target: T2, FcγRIIa H (human, UniProt P12318 34-217); test: SPR Biacore, relative binding
T2 construct: extracellular domain; also called FcgRIIa H type; 2aH; not shown: His tag at the C terminus
T2 sequence (looked up): T1 sequence (looked up) with R134H

Binder	Ho/Con_2aR [1]	He/Con_2aH [2]
B1	102 % of GpH7-B3/GpL16-k0 (=100)	
B2		107 % of GpH7-A5/GpH7-B3/GpL16-k0 (=100)
B3		103 % of GpH7-A5/GpH7-B3/GpL16-k0 (=100)
B4	120 % of GpH7-B3/GpL16-k0 (=100)	
B5		103 % of GpH7-A5/GpH7-B3/GpL16-k0 (=100)
B6	107 % of GpH7-B3/GpL16-k0 (=100)	
B7		104 % of GpH7-A5/GpH7-B3/GpL16-k0 (=100)
B8		103 % of GpH7-A5/GpH7-B3/GpL16-k0 (=100)
B9	106 % of GpH7-B3/GpL16-k0 (=100)	
B10		103 % of GpH7-A5/GpH7-B3/GpL16-k0 (=100)
B11		117 % of GpH7-A5/GpH7-B3/GpL16-k0 (=100)
B12		106 % of GpH7-A5/GpH7-B3/GpL16-k0 (=100)
B13		118 % of GpH7-A5/GpH7-B3/GpL16-k0 (=100)
B14		107 % of GpH7-A5/GpH7-B3/GpL16-k0 (=100)
B15	101 % of GpH7-B3/GpL16-k0 (=100)	
B16		120 % of GpH7-A5/GpH7-B3/GpL16-k0 (=100)
B17	105 % of GpH7-B3/GpL16-k0 (=100)	
B18		106 % of GpH7-A5/GpH7-B3/GpL16-k0 (=100)
B19		110 % of GpH7-A5/GpH7-B3/GpL16-k0 (=100)
B20	139 % of GpH7-B3/GpL16-k0 (=100)	
B21		105 % of GpH7-A5/GpH7-B3/GpL16-k0 (=100)
B22		130 % of GpH7-A5/GpH7-B3/GpL16-k0 (=100)

Binder	Ho/Con_2aR [1]	He/Con_2aH [2]
B23		106 % of GpH7-A5/GpH7-B3/GpL16-k0 (=100)
B24	122 % of GpH7-B3/GpL16-k0 (=100)	
B25		108 % of GpH7-A5/GpH7-B3/GpL16-k0 (=100)
B26	133 % of GpH7-B3/GpL16-k0 (=100)	
B27		103 % of GpH7-A5/GpH7-B3/GpL16-k0 (=100)
B28		104 % of GpH7-A5/GpH7-B3/GpL16-k0 (=100)
B29		123 % of GpH7-A5/GpH7-B3/GpL16-k0 (=100)
B30		116 % of GpH7-A5/GpH7-B3/GpL16-k0 (=100)
B31		114 % of GpH7-A5/GpH7-B3/GpL16-k0 (=100)
B32		108 % of GpH7-A5/GpH7-B3/GpL16-k0 (=100)
B33		106 % of GpH7-A5/GpH7-B3/GpL16-k0 (=100)
B34		102 % of GpH7-A5/GpH7-B3/GpL16-k0 (=100)
B35		103 % of GpH7-A5/GpH7-B3/GpL16-k0 (=100)
B36	104 % of GpH7-B3/GpL16-k0 (=100)	
B37		102 % of GpH7-A5/GpH7-B3/GpL16-k0 (=100)
B38		102 % of GpH7-A5/GpH7-B3/GpL16-k0 (=100)
B39		103 % of GpH7-A5/GpH7-B3/GpL16-k0 (=100)
B40		104 % of GpH7-A5/GpH7-B3/GpL16-k0 (=100)
B41		101 % of GpH7-A5/GpH7-B3/GpL16-k0 (=100)
B42		106 % of GpH7-A5/GpH7-B3/GpL16-k0 (=100)
B43	105 % of GpH7-B3/GpL16-k0 (=100)	
B44	113 % of GpH7-B3/GpL16-k0 (=100)	
